Patent US20220017612A1 (TILOS THERAPEUTICS, published 2022)

T1: fusion protein of a human IgG1 Fc domain and human LAP-TGFβ3 (human, UniProt P10600 24-412)
T1 construct: also called Fc-huB3; human LAP-TGFβ3-Fc
T1 sequence: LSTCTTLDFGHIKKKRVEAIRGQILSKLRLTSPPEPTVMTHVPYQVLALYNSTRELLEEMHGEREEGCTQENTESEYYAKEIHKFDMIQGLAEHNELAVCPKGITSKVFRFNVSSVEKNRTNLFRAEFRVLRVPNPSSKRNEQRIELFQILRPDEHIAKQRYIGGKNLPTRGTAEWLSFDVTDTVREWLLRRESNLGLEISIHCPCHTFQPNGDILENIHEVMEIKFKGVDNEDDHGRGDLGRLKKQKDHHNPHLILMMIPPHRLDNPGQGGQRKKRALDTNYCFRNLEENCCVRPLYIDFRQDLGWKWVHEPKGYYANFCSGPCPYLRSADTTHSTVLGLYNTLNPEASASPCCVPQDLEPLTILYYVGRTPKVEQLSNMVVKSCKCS

T2: human LAP-TGFβ2 overexpressed on HT1080 cells (human, UniProt P61812 21-414)
T2 construct: also called HT1080-huB2
T2 sequence: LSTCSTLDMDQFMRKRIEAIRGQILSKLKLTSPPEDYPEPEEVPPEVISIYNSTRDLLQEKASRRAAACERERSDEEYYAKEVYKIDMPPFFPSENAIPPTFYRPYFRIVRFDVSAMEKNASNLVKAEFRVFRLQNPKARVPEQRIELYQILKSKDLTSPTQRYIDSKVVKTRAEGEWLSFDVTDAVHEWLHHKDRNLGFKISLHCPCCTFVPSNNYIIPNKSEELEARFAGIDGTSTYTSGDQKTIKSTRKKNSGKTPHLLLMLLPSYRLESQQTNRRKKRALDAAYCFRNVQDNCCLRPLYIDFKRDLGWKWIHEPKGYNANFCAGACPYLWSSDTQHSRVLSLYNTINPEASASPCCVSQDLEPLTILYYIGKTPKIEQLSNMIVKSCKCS


Key:
[1] = target: T1, fusion protein of a human IgG1 Fc …; assay: bio-layer interferometry, biotinylated antibody on streptavidin tip, Fc-huB3 in solution
Protocol: The 20E6_H0.2aL1_IgG1 antibody was biotinylated using EZ-Link SulfoNHS-LC-Biotin (ThermoFisher). A streptavidin-functionalized tip was equilibrated in binding buffer (10 mM sodium phosphate, 150 mM sodium chloride, 1% (w/v) bovine serum albumin, 0.05% (w/v) sodium azide, pH 7.4) and dipped in a 10 μg/mL solution of biotinylated anti-LAP in binding buffer for 30 seconds to load the tip with antibody. The antibody-loaded tip was then washed in binding buffer and placed in a solution containing 0-24 nM of a fusion protein having a human IgG1 Fc domain fused to either human LAP-TGFβ1, human LAP-TGFβ2 or human LAP-TGFβ3. The antigen was allowed to bind to antibody for 5 minutes (association phase), and then the tip was moved to binding buffer (dissociation phase). The association and dissociation phases were fit to a 2:1 heterogenous ligand binding model to determine the binding rate constants. As shown in FIG. 21A and Table 17, 20E6_H0.2aL1_IgG1 bound with sub-nanomolar affinity to human LAP-TGFβ1, but not to human LAP-TGFβ2 (FIG. 21B) or LAP-TGFβ3 (FIG. 21C).

[2] = target: T3, soluble complex of the ECR3E fragment of human LTBP1 and human LAP-TGFβ1 (human, UniProt Q14766 1286-1466, limits assumed); assay: bio-layer interferometry, biotinylated antibody on streptavidin tip
T3 construct: domain: third cysteine-rich domain of human LTBP1, flanked by EGFR-like domains; also called ECR3E-LAP-TGFβ1; ECR3E-LAP
Protocol: A streptavidin-functionalized tip was equilibrated in binding buffer (10 mM sodium phosphate, 150 mM sodium chloride, 1% (w/v) bovine serum albumin, 0.05% (w/v) sodium azide, pH 7.4) and dipped in a 5 μg/mL solution of biotinylated antibody (i.e., 20E6_H0.2aL1_hIgG1, murine 16F4, or MHG8, a GARP-specific murine IgG2a described in Lienart et al. Science 2018; 362:952-956) in binding buffer for 30 seconds to load the tip with antibody. The antibody-loaded tip was then washed in binding buffer and placed in a solution containing 0-24 nM of a fusion protein containing a human IgG1 Fc domain fused to either human LAP-TGFβ1, the soluble GARP-LAP-TGFβ1 complex, or the soluble ECR3E-LAP-TGFβ1 complex. The antigen was allowed to bind to antibody for 5 minutes (association phase), and then the tip was moved to binding buffer (dissociation phase). The binding and dissociation data for 16F4 and MHG8 were well-fit by a 1:1 binding model. The association and dissociation phases for 20E6_H0.2aL1_hIgG1 antibody were fit to a 2:1 heterogenous ligand binding model to determine the binding rate constants.
As shown in FIG. 24 and Table 21, the 20E6_H0.2aL1_hIgG1 antibody bound to free LAP-TGFβ1 and the soluble GARP-LAP-TGFβ1 complex with nanomolar affinity, but not to the ECR3E-LAP-TGFβ1 complex. […]

[3] = target: human LAP-TGFβ1 overexpressed on cells (human, UniProt P01137 30-390); assay: cell-based or functional assay
[4] = target: murine LAP-TGFβ1 overexpressed on cells (mouse, UniProt P04202 30-390); assay: cell-based or functional assay
[5] = target: T2, human LAP-TGFβ2 overexpressed on HT1080 …; assay: flow cytometry titration, HT1080-huB2 cells
Protocol: This Example describes the binding of anti-LAP antibodies to LAP-TGFβ isoforms and LAP-TGFβ variants. In addition to antibodies 28G11_hIgG1, 22F9_hIgG1, and 20E6_hIgG1, anti-LAP antibodies 17G8_hIgG1, 24E3_hIgG1, and 2C9_(hyb) were also tested in this experiment. Briefly, 4×10⁵ each of (a) HT1080 cells, (b) HT1080 cells overexpressing human LAP-TGFβ1, (c) HT1080 cells overexpressing human LAP-TGFβ2, (d) HT1080 cells overexpressing human LAP-TGFβ3, (e) HT1080 cells overexpressing murine LAP-TGFβ1, (f) P3U1 cells, (g) P3U1 cells overexpressing LAP-TGFβ1 and GARP, and (h) P3U1 cells overexpressing LAP-TGFβ1 and LRRC33 were cultured in 96-well plates. The plates were centrifuged for 5 min at 1,500 rpm, liquid was removed, and cells were resuspended with 200 μL FACS buffer. The plates were centrifuged again, diluted primary antibody was added to each well, and the plates were incubated on ice for 20 minutes, followed by centrifugation. The cells were resuspended in 200 μL FACS buffer, centrifuged again, and resuspended in 50 μL diluted secondary antibody (Alexa647-anti-Human IgG or APC-anti-Mouse IgG). The plates were incubated on ice for 20 minutes in the dark, washed twice with 200 μL FACS buffer, and cells from each well (in 200 μL FACS buffer) were read on the Attune NXT instrument.

human LAP-TGFβ1 overexpressed on cells, sequence (P01137 30-390): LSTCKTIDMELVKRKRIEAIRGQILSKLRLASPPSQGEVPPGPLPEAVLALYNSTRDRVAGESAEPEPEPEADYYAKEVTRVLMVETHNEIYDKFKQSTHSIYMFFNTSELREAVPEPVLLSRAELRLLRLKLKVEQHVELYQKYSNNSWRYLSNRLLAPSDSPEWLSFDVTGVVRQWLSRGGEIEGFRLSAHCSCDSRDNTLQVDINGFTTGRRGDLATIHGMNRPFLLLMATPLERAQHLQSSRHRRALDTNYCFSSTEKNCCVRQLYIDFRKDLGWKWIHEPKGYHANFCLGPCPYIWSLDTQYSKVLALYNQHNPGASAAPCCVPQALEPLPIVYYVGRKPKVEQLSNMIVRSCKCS
murine LAP-TGFβ1 overexpressed on cells, sequence (P04202 30-390): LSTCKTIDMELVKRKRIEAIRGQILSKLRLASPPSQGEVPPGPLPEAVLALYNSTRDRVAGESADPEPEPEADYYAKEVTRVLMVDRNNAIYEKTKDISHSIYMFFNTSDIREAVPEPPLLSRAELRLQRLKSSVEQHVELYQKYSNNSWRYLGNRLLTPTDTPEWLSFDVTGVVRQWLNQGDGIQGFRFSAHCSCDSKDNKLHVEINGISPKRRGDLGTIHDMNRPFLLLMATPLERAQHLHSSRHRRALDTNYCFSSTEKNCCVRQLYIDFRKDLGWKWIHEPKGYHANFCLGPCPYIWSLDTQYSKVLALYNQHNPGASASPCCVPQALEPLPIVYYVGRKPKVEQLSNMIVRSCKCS
T3 sequence (chain, as listed by the source limits assumed, chain 1 of 2): as the sequence (P01137 30-390) above
T3 sequence (Q14766 1286-1466 limits assumed, chain 2 of 2): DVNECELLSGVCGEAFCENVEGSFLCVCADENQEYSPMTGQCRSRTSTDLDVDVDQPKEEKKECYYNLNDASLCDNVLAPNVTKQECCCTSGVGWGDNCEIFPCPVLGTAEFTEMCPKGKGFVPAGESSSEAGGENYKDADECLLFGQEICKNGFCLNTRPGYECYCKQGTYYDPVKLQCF

Row | binding result [1] | binding result [2] | IC50 of inhibition of TGFβ1 activation [3] [µg/mL] | IC50 of inhibition of TGFβ1 activation [4] [µg/mL] | binding result [5] | Binder
1 | no binding (tested: 24 nM) | no binding (tested: 24 nM) | 1.3 | 1.7 |  | 20E6_H0.2aL1_hIgG1 (antibody, also called 20E6_H0.2aL1_IgG1; humanized 20E6) heavy: not shown light: DIQMTQSPSSLSASVGDRVTITCRASQDITNYLNWYQQKPGKAVKLLIYYTSRLHSGVPSRFSGSGSGTDYTLTISSLQPEDFATYFCQQGDTLPWTFGQGTKLEIKRTVAAPSVFIFPPSDEQLKSGTASVVCLLNNFYPREAKVQWKVDNALQSGNSQESVTEQDSKDSTYSLSSTLTLSKADYEKHKVYACEVTHQGLSSPVTKSFNRGEC
2 |  |  | 1.8 |  | no binding (tested: about 800 ng/well) | 22F9_hIgG1 (antibody, V domains shown) VH: QVQLQQPGAELVKPGASVKLSCKASGYTFTSYWMHWVKQRPGQGLEWIGMIHPNSGSTNYNEKFKSKATLTVDKSSSTAYMQLSSLTSEDSAVYYCAYYDYDGFFDVWGTGTTVTVSS VL: DIVLTQSPASLDVSLGQRATISCRASKSVSTSGYSYMHWYQQKSGQPPKLLIYLASNLESGVPARFSGSGSGTHFTLNIHPVEEEDAATYYCQHSRELPYTFGGGTKLEIK
